The data set deals with Escherichia coli TOP10. The data set can be described thus: shrunken log2 fold change of peptide-encoding DNA abundance (4.5 h post-induction vs induction); higher = less antimicrobial activity (less host growth inhibition). The following applies: time post-induction: 4.5 h; library: site-saturation at positions 5, 18, 19, 20.
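Further: peptides expressed intracellularly from a pBAD plasmid library in pooled LB shake-flask culture, induced with 0.3% L-arabinose, DNA abundance read by NGS, three biological replicates, DESeq2 with apeglm shrinkage.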

Turning to RRIRPRPPRLPRPRPRPTQDPRP, the “shrunken log2 fold change” value came to 0.833.
On to RRIRVRPPRLPRPRPRPAWWPRP, for which the “shrunken log2 fold change” value stood at 0.156.
The value for RRIRQRPPRLPRPRPRPVTDPRP was 0.05; that for RRIRFRPPRLPRPRPRPAALPRP was -0.0867; that for RRIRTRPPRLPRPRPRPWVLPRP was -0.0462.
The same measure for RRIRSRPPRLPRPRPRPCAFPRP: -0.236; for RRIRDRPPRLPRPRPRPIIIPRP: -0.153.
The value for RRIRFRPPRLPRPRPRPQWSPRP was -0.485; that for RRIRDRPPRLPRPRPRPWFFPRP was 0.673.
In the case of RRIRYRPPRLPRPRPRPCIQPRP, the “shrunken log2 fold change” value was -0.172.
With RRIRGRPPRLPRPRPRPDFAPRP, the “shrunken log2 fold change” value was found to be 0.724.
The same measure for RRIRRRPPRLPRPRPRPLSLPRP: -0.203.
The same measure for RRIRFRPPRLPRPRPRPREDPRP: 0.0505; for RRIRLRPPRLPRPRPRPCWPPRP: 0.0177.
The same measure for RRIRRRPPRLPRPRPRPVGVPRP: 0.705.
Take RRIRLRPPRLPRPRPRPIGLPRP: the “shrunken log2 fold change” value was 0.00285.
RRIRVRPPRLPRPRPRPSGRPRP: the “shrunken log2 fold change” value amounted to 0.0291.
Turning to RRIRARPPRLPRPRPRPCLYPRP, the “shrunken log2 fold change” value was 0.137.
The same measure for RRIRNRPPRLPRPRPRPLYTPRP: -0.269; for RRIRIRPPRLPRPRPRPCDCPRP: -0.0657.
Consider RRIRIRPPRLPRPRPRPNTKPRP, for which the “shrunken log2 fold change” value is -0.202.
The same measure for RRIRKRPPRLPRPRPRPPDAPRP: 1.35.
The value for RRIRQRPPRLPRPRPRPFNMPRP was 0.00759.
Regarding RRIRFRPPRLPRPRPRPSNTPRP, the “shrunken log2 fold change” value is -0.422.
As for RRIRGRPPRLPRPRPRPRGVPRP, the “shrunken log2 fold change” value was found to be 0.89.
The value for RRIRARPPRLPRPRPRPFNKPRP was -0.0214; that for RRIRYRPPRLPRPRPRPDLAPRP was -0.344; that for RRIRVRPPRLPRPRPRPPQSPRP was 0.249.
RRIRWRPPRLPRPRPRPETVPRP: the “shrunken log2 fold change” value was -0.0769.
The value for RRIRFRPPRLPRPRPRPSDLPRP was -0.0388; that for RRIRRRPPRLPRPRPRPQHTPRP was 0.191; that for RRIRNRPPRLPRPRPRPTTIPRP was -0.819.
The same measure for RRIRFRPPRLPRPRPRPFWQPRP: -0.321.
The same measure for RRIRYRPPRLPRPRPRPIDHPRP: -0.0413; for RRIRHRPPRLPRPRPRPRHSPRP: -0.173.
Regarding RRIRWRPPRLPRPRPRPTKFPRP, the “shrunken log2 fold change” value worked out at 0.142.
Take RRIRERPPRLPRPRPRPCTAPRP: the “shrunken log2 fold change” value is -0.337.
Consider RRIRWRPPRLPRPRPRPLKFPRP, for which the “shrunken log2 fold change” value was -0.121.
Take RRIRCRPPRLPRPRPRPGWQPRP: the “shrunken log2 fold change” value was found to be 0.331.
The value for RRIRCRPPRLPRPRPRPYGKPRP was -0.307; that for RRIRPRPPRLPRPRPRPNFSPRP was 1.08; that for RRIRQRPPRLPRPRPRPFSYPRP was -0.0227.
Consider RRIRRRPPRLPRPRPRPEFPPRP, for which the “shrunken log2 fold change” value amounted to 0.154.
The value for RRIRKRPPRLPRPRPRPQGHPRP was 0.0492.
The same measure for RRIRIRPPRLPRPRPRPPDNPRP: -0.368; for RRIRFRPPRLPRPRPRPYDRPRP: -0.0252; for RRIRVRPPRLPRPRPRPAFIPRP: 0.00175.
The value for RRIRDRPPRLPRPRPRPTMGPRP was 1.05.
On to RRIRGRPPRLPRPRPRPWSVPRP, for which the “shrunken log2 fold change” value is -0.131.
The value for RRIRSRPPRLPRPRPRPLDPPRP was -0.0203.

(Values after the supplement of paper PMC9112550, “Optimization of the antimicrobial peptide Bac7 by deep mutational scanning” (BMC Biology, 2022).)
